Assay results taken from article PMC10557571 (bioRxiv, 2023).

Molecular target: the molecule itself
Experiment: SDS-PAGE under non-reducing and reducing conditions with anti-Flag western blot

B1: Unprocessed Activin E precursor from Construct I (natural protein, human, UniProt P58166 20-350, looked up)
chain: QGTGSVCPSCGGSKLAPQAERALVLELAKQQILDGLHLTSRPRITHPPPQAALTRALRRLQPGSVAPGNGEEVISFATVTDSTSAYSSLLTFHLSTPRSHHLYHARLWLHVLPTLPGTLCLRIFRWGPRRRRQGSRTLLAEHHITNLGWHTLTLPSSGLRGEKSGVLKLQLDCRPLEGNSTVTGQPRRLLDTAGHQQPFLELKIRANEPGAGRRRRRTPTCEPATPLCCRRDHYVDFQELGWRDWILQPEGYQLNYCSGQCPPHLAGSPGIAASFHSAVFSLLKANNPWPASTSCCVPTARRPLSLLYLDHNGNVVKTDVPDMVVEACGCS
  stoichiometry N: 2

B2: Flag-tagged mature Activin E from Construct II (ligand, human, UniProt P58166 237-350, looked up)
chain: TPTCEPATPLCCRRDHYVDFQELGWRDWILQPEGYQLNYCSGQCPPHLAGSPGIAASFHSAVFSLLKANNPWPASTSCCVPTARRPLSLLYLDHNGNVVKTDVPDMVVEACGCS
  stoichiometry N: 2
